From PMC10643670, “Functional and structural diversity in deubiquitinases of the Chlamydia-like bacterium Simkania negevensis” (Nature Communications, 2023)

Target: T1, wild-type Met1-linked di-ubiquitin (UniProt P0CG48 1-76; P0CG48 1-76)
T1 construct: ubiquitin, first moiety of the linear fusion (residues 1-76 of the di-ubiquitin); ubiquitin, second moiety of the linear fusion (residues 77-152 of the di-ubiquitin); In the crystal each di-ubiquitin bridges two SnOTU molecules: residues 1-76 lie in the S1' site of one SnOTU and residues 77-152 in the S1 site of the other; also called linear di-ubiquitin; M1-linked di-ubiquitin; source: expressed …
Assay: crystal structure; catalytic inactive SnOTU 1-255 and linear di-ubiquitin mixed in a 1:1.1 ratio; sitting drop vapor diffusion, 4 °C; 0.25 M magnesium formate, 20% w/v PEG 3350, 0.02 M EDTA disodium salt
Conditions: both partners purified

B1: catalytically inactivated (C82A) fragment SnOTU 1-255 (domain or fragment)
chain: MSLPVKERPDAIYTFEGKTYENTSFSKTGIPIVGQPLKMEAYVHKEYTHVTSLEGKRFKSQLEEAAKIYGEQLHEIQGDGNALTTAFATSFLYLLNGNATLIATFDNILIGLDAHKNIPPVRQTIEKLKVKNDLELKQILASNETMFAFSSVIRHLARQKLPELGEPFSLLIDEMVPEEDGKEIEIACIGGLCQLLNICADVIYLRKDYDTFKIERYPNETGKPDLVILRKAAHFLSIILDSKKSIEERTNELGK
notes: resolved from residues 2 to 242 in PDB 8CMR; Amplified from S. negevensis genomic DNA (DSM No.27360), cloned into pOPIN-S; source: E. coli Rosetta (DE3) pLysS, purified (HisTrap FF, tag removal, SEC); not shown: His6, N-terminal, cleaved; Smt3, N-terminal, cleaved
  binding result: binds
